Assay: soluble on expression in E. coli; label from the status in PepcDB or PDB records

Row | Sequence | soluble on expression in E. coli
1 | MEKYLPILRNSPFFKGLSDNEILSILHCVNATVISKERASYIFRAGDSTEVMGLVVSGCVLVMQEDLWGHRNILSKCHAGDFFGEPYAASLGAVLNISVAADEDCEIIFLNVQRLLVTCQTACEHHQKLIRNLVSVLANKILILNDKITHVGKRTTRDKLLSYLSAESIRRSSLSFDIPFDRQQLADYLCIDRAAMSTEISKLQKEGFIKTNRNHFELIACNETDLQADK | not soluble
2 | MELASNFDEFISTQSIEEGLDFGCNLLSSALRLQGDTDPAQAQVLLQELTQYLSLRYVGEHGLALEYLAGLGHQCSPDNYRHSQFWGQLKWIANEIGLSDTALNSLALPPGVLRSGGA | not soluble
3 | MELEQREGTMAAVGFEEFSAPPGSELALPPLFGGHILESELETEVEFVSGGLGGSGLRERDEEEEAARGRRRRQRELNRRKYQALGRRCREIEQVNERVLNRLHQVQRITRRLQQERRFLMRVLDSYGDDYRASQFTIVLEDEGSQGTDAPTPGNAENEPPEKETLSPPRRTPAPPEPGSPAPGEGPSGRKRRRVPRDGRRAGNALTPELAPVQIKVEEDFGFEADEALDSSWVSRGPDKLLPYPTLASPASD | soluble
4 | MELFELFILDANGVPRGKLLHRDELLAVYRSGRPLPSTILGLTMNGEDVEDSGLVWDVGDIDCRAYPLSGSLVRLPWRQIPTAAVQVSMHPSEGLPASVADPRHLLVRTIDALKSEGYHPVMAAELEFYLLDRERDANGRPQPARDADGGRPRATQVYGLRELEQIEPFLADLYAACKAQGLPARTAISEYAPGQVEITLDHGDALAAMDQAIRYKRLVKGIAHKHGMLACFMAKPFDDLAGTGMHLHVSLADEQGHNLFASDDPAGTPLLRQAVGGMLASLLDSLLLFCPNANSYRRFQANSYAPLAQTWGVDNRTVSLRVPGGPASSRHIEHRICGADANPYLAAAALLAGVHRGIREGIDPGAPVEGNGYAQAGKRLPTDWLTALDTLQGSEWAREAFGEPFLGVYLAVKRAEYRQFMGEVGEQDWRWYL | not soluble
5 | MELFTEAWAQAYCRKLNESEAYRKAASTWEGSLALAVRPDPKAGFPKGVAVVLDLWHGACRGAKAVEGEAEADFVIEADLATWQEVLEGRLEPLSALMRGLLELKKGTIAALAPYAQAAQELVKVAREVA | soluble
6 | MELKFVVPDMAETFGKLGYAGEGEILTEGYGRNTVVIGRSYHLYSSKQRADDIEVVVAAEAGEKDFDQDQPLKAVNPHLVAKGYAIENRGFTDYVLYVDDLVKA | not soluble
7 | MELRHIRYFLAVAEERHFTRAATKLGIGQPPLSQQIKDLERELGAQLFRRVPHGAELTEAGKAFYDVVKGMPATATRAVLAAQRVARGESGVLRVGFTASAAFNSVVPGAIRTFKRAYPDVRLQLEEGNTTQLADELNEGSLDVAFLRPGFTGNERFQLRLLSEEPMVIVLAETHPAAACKQIALSILKDEFFLLFPREIGLSLYDAVIKACGKAGFEPKIGQLVPQISSVINLVSAEMGVSMVPDSMRQVNVKGVVYRPVADQMPVAKLALAYRRGDTSPTLRNFILKVTG | not soluble
8 | MELSSPITIYWDLPATAADPSLLLAIAAGIIDCRPLMLNVTSTAPTSPGWLGEVLERFRGGPAAVTLTIPPQAHDDTVRALVAHGAVRELLLDVDHADLLDSGEWQDEPSAGVSYAVTHGNWRELPTLVHYCLDRGITRLVLPMQRLYGGEPPFFLTMNEQRELANALDAEGGAQRLALTIHDPFLWRAFNPGVPFPQGGCQAANTMIAIAPDGGVYPCPTLPVRLGTAGEMPLQELIASEAKKALRRRLLEHPRACGACGELAECRGGCRGRAYVMHQSLEGEDPSCWLEHHHHHH | not soluble
9 | MEMKQKLLTDIELDVHELKLLMNTFSKEPTQTLSELLKRSILRMQERLEQLSEEISAVPVEASPSPVAEAESEAPIVEEQAPVIEEVECPVIEEKVVEENEATAPGEDEPVIVQEPQTVVEEAVIEEPVVEDEMEEKEAEDESEDDESLLIEEPKTAVLGESIKMAAGLRHSISLNDSFRFSREIFGGDPELMNRVIEQISVMSSYKTAVAFLASKVSVNEENEAMIDFLELLKKYFNQSA | soluble
